The values that follow come from publication PMC7300015.

Test [1] has as its target SADS-CoV spike glycoprotein ectodomain (residues 1-1068) (swine acute diarrhea syndrome coronavirus (SADS-CoV)). Nature of the test: cryo-EM structure.
Test [2] concerns the target HKU2 spike glycoprotein ectodomain (residues 1-1066) (Rhinolophus bat coronavirus HKU2). As to the kind of experiment: cryo-EM structure.

“SADS-CoV spike glycoprotein ectodomain (residues 1-1068) (domain or fragment)”: the stoichiometry N (usually a count of units in the complex or per binding partner) in test [1] is 3.

Substance “HKU2 spike glycoprotein ectodomain (residues 1-1066) (domain or fragment)” had a stoichiometry N in test [2] of 3.
